Source: publication PMC1807957
Where a chain is given by its changes, count along the chain named.

T1: POLγB-VV (UniProt Q9UHN1 26-485, V119A;V125A)
T1 sequence: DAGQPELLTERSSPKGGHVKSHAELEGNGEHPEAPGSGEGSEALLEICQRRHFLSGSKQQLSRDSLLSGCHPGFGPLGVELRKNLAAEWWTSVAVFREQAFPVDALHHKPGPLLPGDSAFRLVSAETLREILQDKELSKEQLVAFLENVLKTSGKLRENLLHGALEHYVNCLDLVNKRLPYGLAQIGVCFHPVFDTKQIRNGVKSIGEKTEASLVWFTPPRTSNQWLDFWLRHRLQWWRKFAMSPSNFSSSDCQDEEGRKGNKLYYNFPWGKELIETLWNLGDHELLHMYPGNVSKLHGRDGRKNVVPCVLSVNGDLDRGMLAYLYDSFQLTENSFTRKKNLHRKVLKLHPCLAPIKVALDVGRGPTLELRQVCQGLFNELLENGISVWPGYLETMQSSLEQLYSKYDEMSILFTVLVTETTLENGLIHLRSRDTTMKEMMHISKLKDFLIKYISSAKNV

T2: POLγB-RKK (UniProt Q9UHN1 26-485, R363A;K364A;K365A)
T2 sequence: T1 sequence with A94V, A100V, R338A, K339A, K340A

T3: POLγB wild type (accessory subunit of DNA polymerase γ) (UniProt Q9UHN1 26-485)
T3 sequence: T1 sequence with A94V, A100V

T4: POLγB-RK (UniProt Q9UHN1 26-485, R328A;K329A)
T4 sequence: T1 sequence with A94V, A100V, R303A, K304A

B1: primed DNA template (35-mer/20-mer) (mixed)
DNA 1: TTTTTTTTTTATCCGGGCTCCTCTAGACTCGACCG
DNA 2: CGGTCGAGTCTAGAGGAGCC
B2: 50-bp dsDNA probe (dsDNA)
DNA 1: GGCGTATATCCAAATTAAAAGCATTTTTGATTGCATATATATCATCAGCT
DNA 2: AGCTGATGATATATATGCAATCAAAAATGCTTTTAATTTGGATATACGCC

Tests used:
[1] = biological target: POLγA (catalytic subunit of DNA polymerase γ);POLγB-VV (Homo sapiens?;Homo sapiens?, UniProt P54098;Q9UHN1 26-1239;26-485, |V119A;V125A); assay: EMSA supershift
[2] = biological target: POLγA (catalytic subunit of DNA polymerase γ) (UniProt P54098 26-1239); assay: EMSA
[3] = biological target: POLγA (catalytic subunit of DNA polymerase γ);POLγB-RKK (Homo sapiens?;Homo sapiens?, UniProt P54098;Q9UHN1 26-1239;26-485, |R363A;K364A;K365A); assay: EMSA, competitor challenge
[4] = biological target: POLγA (catalytic subunit of DNA polymerase γ);POLγB-RK (Homo sapiens?;Homo sapiens?, UniProt P54098;Q9UHN1 26-1239;26-485, |R328A;K329A); assay: EMSA, competitor challenge
[5] = biological target: T1, POLγB-VV; assay: EMSA
[6] = biological target: T2, POLγB-RKK; assay: EMSA
[7] = biological target: T3, POLγB wild type (accessory subunit of …); assay: EMSA
[8] = biological target: T4, POLγB-RK; assay: EMSA

Sequence of POLγA (catalytic subunit of DNA polymerase γ);POLγB-RKK (P54098 26-1239, stated change not applied, one chain of several): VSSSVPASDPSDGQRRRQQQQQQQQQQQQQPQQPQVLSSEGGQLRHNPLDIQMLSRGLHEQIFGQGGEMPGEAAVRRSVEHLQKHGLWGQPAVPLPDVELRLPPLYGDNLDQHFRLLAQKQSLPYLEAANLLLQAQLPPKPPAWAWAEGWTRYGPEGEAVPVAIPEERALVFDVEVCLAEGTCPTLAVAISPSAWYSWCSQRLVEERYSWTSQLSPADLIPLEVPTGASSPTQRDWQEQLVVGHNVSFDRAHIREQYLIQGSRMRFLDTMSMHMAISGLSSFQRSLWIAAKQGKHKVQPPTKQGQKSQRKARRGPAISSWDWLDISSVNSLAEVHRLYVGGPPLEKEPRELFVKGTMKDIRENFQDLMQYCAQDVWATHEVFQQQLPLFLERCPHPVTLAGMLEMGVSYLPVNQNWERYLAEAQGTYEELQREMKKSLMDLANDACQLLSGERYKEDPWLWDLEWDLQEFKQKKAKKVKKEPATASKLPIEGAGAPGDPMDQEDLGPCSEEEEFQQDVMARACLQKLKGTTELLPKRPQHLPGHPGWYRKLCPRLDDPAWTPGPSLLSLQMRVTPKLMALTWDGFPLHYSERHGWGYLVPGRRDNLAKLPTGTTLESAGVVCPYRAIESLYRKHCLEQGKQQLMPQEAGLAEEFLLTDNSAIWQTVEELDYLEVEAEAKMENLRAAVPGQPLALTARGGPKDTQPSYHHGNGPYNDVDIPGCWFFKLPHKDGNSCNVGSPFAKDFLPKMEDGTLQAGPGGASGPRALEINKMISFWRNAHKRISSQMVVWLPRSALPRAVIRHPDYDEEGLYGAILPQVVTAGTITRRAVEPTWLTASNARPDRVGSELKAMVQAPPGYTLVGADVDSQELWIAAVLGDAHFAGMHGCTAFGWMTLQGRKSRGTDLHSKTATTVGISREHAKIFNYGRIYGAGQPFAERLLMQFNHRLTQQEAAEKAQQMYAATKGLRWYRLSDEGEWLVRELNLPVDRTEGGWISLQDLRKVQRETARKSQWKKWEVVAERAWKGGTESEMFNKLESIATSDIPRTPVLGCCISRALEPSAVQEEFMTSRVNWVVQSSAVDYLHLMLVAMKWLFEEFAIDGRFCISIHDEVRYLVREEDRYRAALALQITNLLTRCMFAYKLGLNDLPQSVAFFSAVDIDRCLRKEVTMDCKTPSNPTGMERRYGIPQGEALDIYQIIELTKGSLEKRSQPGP
Sequence of POLγA (catalytic subunit of DNA polymerase γ);POLγB-VV (P54098 26-1239, stated change not applied, one chain of several): as above
Sequence of POLγA (catalytic subunit of DNA polymerase γ);POLγB-RK (P54098 26-1239, stated change not applied, one chain of several): as above
Sequence of POLγA (catalytic subunit of DNA polymerase γ) (P54098 26-1239): as the sequence (P54098 26-1239, stated change not applied, one chain of several) above

Binder	binding result [1]	binding result [2]	binding result [3]	binding result [4]	binding result [5]	binding result [6]	binding result [7]	binding result [8]
B1	binds	binds	binds	binds	–	–	–	–
B2	–	–	–	–	binds	no binding	binds	no binding
